# Tests used:
# [1] = tested on: HeLa, MGC-803, HT-29, A549, PC-3, U937, HL-60, Jurkat T lymphocytes, K562, Raji, TF-1 cells; assay: entry of exogenous PDCD5 into cell types; type: cell-based
# [2] = tested on: K562 cells; assay: Annexin-V apoptosis by flow cytometry, Ara-C; type: cell-based
# Description: Methods: Cell staining with FITC/Annexin-V and cell apoptosis detection in vitro by flow cytometry: K562 cells (ATCC) were maintained in RPMI 1640 (Life Technologies, USA) supplemented with 10% FBS (Hyclone, USA), and were plated in 24-well culture dishes to a density of 2×10^5 cells per well. rhPDCD5 protein was added in each well with a final concentration of 15 μg/mL, 30 μg/mL and 60 μg/mL, respectively. Chemotherapeutic drug Ara-C (Pharmacia, Italia) was then added with a final concentration of 0.1 μg/mL and RPMI 1640 medium supplemented with 10% FBS was added to bring the culture system to 1 mL. After incubation for 48 hours, the cells were stained with Annexin-V/PI (Biosea) and then were analyzed for apoptosis by flow cytometry.
# [3] = tested on: U937 cells; assay: colony forming ability (CFA), DNR; type: cell-based
# Description: (§1) Analysis for colony forming ability (CFA): U937 cells (ATCC), in the logarithmic phase, were maintained in RPMI 1640 medium supplemented with 20% FBS and 0.4% methyl cellulose (Sigma) by the semi-solid colony culture method and were adjusted to a density of 5×10^3 cells/mL. The cells were divided into control groups and test groups, and each group was assayed in triple wells. U937 cells in the control groups were treated with DNR alone, with the final concentrations of 0 ng/mL and 0.5 ng/mL. U937 cells in the test group were treated with DNR of various concentrations combined with PDCD5 of various concentrations, while the final concentrations of PDCD5 were 0 μg/mL, 0.625 μg/mL, 1.25 μg/mL, and 2.5 μg/mL, respectively. After incubation for 14 days in a 37° C., 5% CO2 and saturatedly humidified incubator, a colony with more than 30 cells was counted by an inverted microscope in order to analyze colony forming ability of each group. The colony forming ability was shown as the ratio of average number of colony in each group versus that of the untreated control group in which the final concentrations of DNR and PDCD5 were 0 μg/mL.
# [4] = tested on: Raji cells; assay: FITC/Annexin-V apoptosis by flow cytometry, DNR; type: cell-based
# Description: Methods: Raji cells were cultured in RPMI 1640 medium (Life Technologies, USA) supplemented with 10% Fetal Bovine Serum (FBS, Hyclone, USA). The cells were seeded in 24-well plates with 2×10^5 cells per well. rhPDCD5 was added to each well and the final concentrations were 0 μg/mL, 2.5 μg/mL and 5 μg/mL, respectively. Subsequently, DNR was added and the final concentrations were 0 μg/mL and 0.05 μg/mL, and RPMI 1640 medium supplemented with 10% FBS was added to ensure the system was brought to 1 mL. After 24 h incubation, the cells were stained with FITC/Annexin-V (Beijing Biosea Biotechnology Co., Ltd.) and the apoptosis was detected by flow cytometry.
# [5] = tested on: HL-60 cells; assay: cell apoptosis assay, As2O3; type: cell-based
# Description: Methods: Cell apoptosis assay: HL-60 cells (ATCC) of logarithmic growth phase were cultured and the density of cells was 2×10^5/mL. The cells were divided into control and test groups. In the control groups, the HL60 cells were treated only with As2O3 (Harbin Yida Pharmaceutical Co., Ltd.), and the final concentration of As2O3 were 0 μg/mL, 0.25 μg/mL and 0.5 μg/mL, respectively. In the test groups, the HL60 cells were treated with As2O3 in the various concentrations combined with PDCD5 in various concentrations, the final concentrations of PDCD5 being 0 μg/mL, 5 μg/mL, 10 μg/mL and 20 μg/mL, respectively. The cells were incubated in a 37° C., 5% CO2 and saturatedly humidified incubator for 24 h, and subsequently were stained with Annexin-V/PI and detected for apoptosis by flow cytometer.
# [6] = tested on: HL60 cells; assay: colony-forming ability (CFA) assay, As2O3; type: cell-based
# Description: as §1
# Colony-forming ability (CFA) assay: HL60 cells of logarithmic growth phase were cultured by a method identical to that in Example 8. The cells were divided into control and test groups (each with 3 wells): In the control groups, the HL60 cells were treated only with arsenic trioxide and the final concentration of which were 0 μg/mL and 0.25 μg/mL, respectively; in the test groups, the HL60 cells were treated with different concentrations of As2O3, which was combined with different concentrations of PDCD5, the final concentrations of PDCD5 were 0 μg/mL, 5 μg/mL, 10 μg/mL and 20 μg/mL, respectively. Cultures were incubated in a 37° C., 5% CO2 and saturatedly humidified incubator for 14 days. The numbers of colonies (containing≧30 cells) were counted on day 14 by inverted microscope. The colony-forming ability was observed as the ratio of the number of average colony formation in the test groups versus that in the untreated control group. […]
# [7] = tested on: U937 xenografts; assay: U937 nude mice xenograft model, DNR; type: in vivo, BALB/c nude mice; conditions: fifteenth day; rhPDCD5 40 μg into the tumor, DNR 40 μg intraperitoneal, once a day for 8 days
# Description: Methods: U937 nude mice xenograft model: BALB/c nude mice (5-6 weeks of age) were pretreated with cyclophosphamide (100 mg/kg, injected intraperitoneally once a day for two consecutive days). On day 3, 1×10^7 (100 μl) of U937 cells were subcutaneously (s.c.) injected into a single flank of each of the mice. The treatments began on day 7 after inoculation when the average tumor diameter reached about 5 mm. The mice were divided randomly into four groups (n=6, i.e., six mice in each group) and treated with normal saline (NS), rhPDCD5 (40 μg, locally injected into the tumor), DNR (40 μg, intraperitoneal) or DNR (40 μg) plus rhPDCD5 (40 μg), once a day for 8 consecutive days.
# Tumor volume (V) was determined every other day by vernier caliper measurements and calculated based on the equation of V=ab^2/2, where “a” refers to a long tumor diameter and “b” refers to a short diameter, then tumor volume growth curve was drawn. The percentage of reductions in tumor growth was calculated using the formula: [1-(Tf-Ti)/(Cf-Ci)]×100, where Tf and Ti are the final and initial mean tumor volumes, respectively, of the group receiving a specific treatment, and Cf and Ci are the final and initial mean tumor volumes, respectively, of the NS control group. After the treatment, tumors were collected and weighed and tissues were sectioned and processed by histological hematoxylin and eosin (H&E) staining. Results were statistically analyzed using SPSS 13.0. The measurements were expressed as the mean±standard deviation. Data were analyzed by the single-factor ANOVA and Student's t test and are presented as mean±standard deviation (SD). P<0.05 was considered statistically significant.
# [8] = tested on: SiHa cervical cancer cells; conditions: Zhang et al. 2004; cited from earlier work
molecule,measurement,setting,value
"rhPDCD5: recombinant human programmed cell death 5 protein (SEQ ID NO:1) expressed in E. coli and purified (protein, listed as Homo sapiens) MADEELEALRRQRLAELQAKHGDPGDAAQQEAKHREAEMRNSILAQVLDQSARARLSNLALVKPEKTKAVENYLIQMARYGQLSEKVSEQGLIEILKKVSQQTEKTTTVKFNRRKVMDSDEDDDY",specificity for cell types while entering into cells,[1],shows no specificity for cell types
same,promotion of apoptosis induced by Ara-C,[2],could significantly promote apoptosis
same,enhancement of inhibition of CFA by DNR,[3],can significantly enhance the inhibition of CFA by DNR
same,effect on the CFA of U937 cells,[3]; rhPDCD5 alone,did not have significant effect
same,enhancement of DNR-induced apoptosis,[4],can significantly enhance DNR-induced apoptosis
same,enhancement of induced apoptosis,[5],can significantly enhance As2O3-induced apoptosis
same,enhancement of CFA inhibition by As2O3,[6],can significantly enhance the CFA inhibition by As2O3
same,effect on the CFA of HL60,[6]; rhPDCD5 alone,no significant affect
same,Average size of tumors (mean ± SD),[7],571.96 ± 237.91 mm^3
same,effect on apoptosis induced by IFNγ in vitro,[8],had a sensitized effect on apoptosis of SiHa cervical cancer cells
